Experimental data published in US20180155451A1 (published 2018).

T1: FcγRIIa R (human, UniProt P12318 34-217)
T1 construct: extracellular domain; also called FcgRIIa R type; 2aR
T1 sequence (looked up): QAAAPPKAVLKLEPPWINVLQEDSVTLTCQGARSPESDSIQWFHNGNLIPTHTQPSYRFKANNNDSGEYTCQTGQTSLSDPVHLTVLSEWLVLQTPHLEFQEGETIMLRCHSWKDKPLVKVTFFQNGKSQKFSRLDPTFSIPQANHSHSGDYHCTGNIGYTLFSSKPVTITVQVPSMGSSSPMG

B1: GpH7-A5/GpH7-B3 variant P331_15Y/GpL16-k0 (antibody, human IgG1, kappa)
heavy 1: not shown
heavy 2: not shown
light: DIVMTQSPLSLPVTPGEPASISCQASESLVHSNRNTYLHWYLQKPGQSPQLLIYKVSNRFSGVPDRFSGSGSGTDFTLKISRVEAEDVGVYYCSQNTHVPPTFGQGTKVEIERTVAAPSVFIFPPSDEQLKSGTASVVCLLNNFYPREAKVQWKVDNALQSGNSQESVTEQDSKDSTYSLSSTLTLSKADYEKHKVYACEVTHQGLSSPVTKSFNRGEC
notes: also called He Ab P331_15Y
B2: GpH7-A5/GpH7-B3 variant P238_03V/GpL16-k0 (antibody, human IgG1, kappa)
heavy 1: not shown
heavy 2: not shown
light: B1 light
notes: also called He Ab P238_03V
B3: GpH7-A5/GpH7-B3 variant L234_04F/GpL16-k0 (antibody, human IgG1, kappa)
heavy 1: not shown
heavy 2: not shown
light: B1 light
notes: also called He Ab L234_04F
B4: GpH7-A5/GpH7-B3 variant L235_09D/GpL16-k0 (antibody, human IgG1, kappa)
heavy 1: not shown
heavy 2: not shown
light: B1 light
notes: also called He Ab L235_09D
B5: GpH7-A5/GpH7-B3 variant L328_02A/GpL16-k0 (antibody, human IgG1, kappa)
heavy 1: not shown
heavy 2: not shown
light: B1 light
notes: also called He Ab L328_02A
B6: GpH7-A5/GpH7-B3 variant L328_09D/GpL16-k0 (antibody, human IgG1, kappa)
heavy 1: not shown
heavy 2: not shown
light: B1 light
notes: also called He Ab L328_09D
B7: GpH7-A5/GpH7-B3 variant L234_10E/GpL16-k0 (antibody, human IgG1, kappa)
heavy 1: not shown
heavy 2: not shown
light: B1 light
notes: also called He Ab L234_10E
B8: GpH7-A5/GpH7-B3 variant K334_20W/GpL16-k0 (antibody, human IgG1, kappa)
heavy 1: not shown
heavy 2: not shown
light: B1 light
notes: also called He Ab K334_20W
B9: GpH7-A5/GpH7-B3 variant N325_15Y/GpL16-k0 (antibody, human IgG1, kappa)
heavy 1: not shown
heavy 2: not shown
light: B1 light
notes: also called He Ab N325_15Y
B10: GpH7-A5/GpH7-B3 variant P331_04F/GpL16-k0 (antibody, human IgG1, kappa)
heavy 1: not shown
heavy 2: not shown
light: B1 light
notes: also called He Ab P331_04F
B11: GpH7-A5/GpH7-B3 variant K334_10E/GpL16-k0 (antibody, human IgG1, kappa)
heavy 1: not shown
heavy 2: not shown
light: B1 light
notes: also called He Ab K334_10E
B12: GpH7-A5/GpH7-B3 variant P331_20W/GpL16-k0 (antibody, human IgG1, kappa)
heavy 1: not shown
heavy 2: not shown
light: B1 light
notes: also called He Ab P331_20W
B13: GpH7-A5/GpH7-B3 variant K334_19Q/GpL16-k0 (antibody, human IgG1, kappa)
heavy 1: not shown
heavy 2: not shown
light: B1 light
notes: also called He Ab K334_19Q
B14: GpH7-A5/GpH7-B3 variant L328_14T/GpL16-k0 (antibody, human IgG1, kappa)
heavy 1: not shown
heavy 2: not shown
light: B1 light
notes: also called He Ab L328_14T
B15: GpH7-A5/GpH7-B3 variant N325_04F/GpL16-k0 (antibody, human IgG1, kappa)
heavy 1: not shown
heavy 2: not shown
light: B1 light
notes: also called He Ab N325_04F
B16: GpH7-A5/GpH7-B3 variant K334_12R/GpL16-k0 (antibody, human IgG1, kappa)
heavy 1: not shown
heavy 2: not shown
light: B1 light
notes: also called He Ab K334_12R
B17: GpH7-A5/GpH7-B3 variant L328_10E/GpL16-k0 (antibody, human IgG1, kappa)
heavy 1: not shown
heavy 2: not shown
light: B1 light
notes: also called He Ab L328_10E
B18: GpH7-A5/GpH7-B3 variant P238_06M/GpL16-k0 (antibody, human IgG1, kappa)
heavy 1: not shown
heavy 2: not shown
light: B1 light
notes: also called He Ab P238_06M
B19: GpH7-A5/GpH7-B3 variant P238_09D/GpL16-k0 (antibody, human IgG1, kappa)
heavy 1: not shown
heavy 2: not shown
light: B1 light
notes: also called He Ab P238_09D
B20: GpH7-A5/GpH7-B3 variant N325_10E/GpL16-k0 (antibody, human IgG1, kappa)
heavy 1: not shown
heavy 2: not shown
light: B1 light
notes: also called He Ab N325_10E
B21: GpH7-A5/GpH7-B3 variant N325_14T/GpL16-k0 (antibody, human IgG1, kappa)
heavy 1: not shown
heavy 2: not shown
light: B1 light
notes: also called He Ab N325_14T
B22: GpH7-A5/GpH7-B3 variant N325_08L/GpL16-k0 (antibody, human IgG1, kappa)
heavy 1: not shown
heavy 2: not shown
light: B1 light
notes: also called He Ab N325_08L
B23: GpH7-A5/GpH7-B3 variant N325_13S/GpL16-k0 (antibody, human IgG1, kappa)
heavy 1: not shown
heavy 2: not shown
light: B1 light
notes: also called He Ab N325_13S
B24: GpH7-A5/GpH7-B3 variant L234_20W/GpL16-k0 (antibody, human IgG1, kappa)
heavy 1: not shown
heavy 2: not shown
light: B1 light
notes: also called He Ab L234_20W
B25: GpH7-A5/GpH7-B3 variant K334_08L/GpL16-k0 (antibody, human IgG1, kappa)
heavy 1: not shown
heavy 2: not shown
light: B1 light
notes: also called He Ab K334_08L
B26: GpH7-A5/GpH7-B3 variant K334_02A/GpL16-k0 (antibody, human IgG1, kappa)
heavy 1: not shown
heavy 2: not shown
light: B1 light
notes: also called He Ab K334_02A
B27: GpH7-A5/GpH7-B3 variant L235_15Y/GpL16-k0 (antibody, human IgG1, kappa)
heavy 1: not shown
heavy 2: not shown
light: B1 light
notes: also called He Ab L235_15Y

What follows are binders tested against T1, FcγRIIa R (assay: SPR Biacore; vs GpH7-A5/GpH7-B3/GpL16-k0 =100).

Row | He/Con_2aR | Binder
1 | 112 % of control | B1
2 | 120 % of control | B2
3 | 104 % of control | B3
4 | 101 % of control | B4
5 | 117 % of control | B5
6 | 119 % of control | B6
7 | 112 % of control | B7
8 | 105 % of control | B8
9 | 101 % of control | B9
10 | 111 % of control | B10
11 | 106 % of control | B11
12 | 110 % of control | B12
13 | 109 % of control | B13
14 | 119 % of control | B14
15 | 120 % of control | B15
16 | 111 % of control | B16
17 | 105 % of control | B17
18 | 139 % of control | B18
19 | 148 % of control | B19
20 | 105 % of control | B20
21 | 105 % of control | B21
22 | 144 % of control | B22
23 | 143 % of control | B23
24 | 108 % of control | B24
25 | 106 % of control | B25
26 | 105 % of control | B26
27 | 129 % of control | B27
